Columns and labels:
WAVE1(1-230) = target: T1, WAVE1(1-230) (human, UniProt Q92558 1-230); assay: reconstitution and co-purification of subcomplexes and pentamer
T1 sequence: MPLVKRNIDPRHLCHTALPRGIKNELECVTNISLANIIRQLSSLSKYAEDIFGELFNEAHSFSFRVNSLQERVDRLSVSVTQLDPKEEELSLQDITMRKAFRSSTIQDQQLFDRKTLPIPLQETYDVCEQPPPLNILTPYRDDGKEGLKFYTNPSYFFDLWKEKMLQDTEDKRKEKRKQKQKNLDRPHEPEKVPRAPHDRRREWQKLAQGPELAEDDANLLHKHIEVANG

Sra1/Nap1 dimer = Sra1/Nap1 dimer (human, UniProt Q7L576;Q9Y2A7); assay: as above
Sra1 = Sra1 (human, UniProt Q7L576 1-1253); assay: as above
Sra1, sequence (Q7L576 whole entry): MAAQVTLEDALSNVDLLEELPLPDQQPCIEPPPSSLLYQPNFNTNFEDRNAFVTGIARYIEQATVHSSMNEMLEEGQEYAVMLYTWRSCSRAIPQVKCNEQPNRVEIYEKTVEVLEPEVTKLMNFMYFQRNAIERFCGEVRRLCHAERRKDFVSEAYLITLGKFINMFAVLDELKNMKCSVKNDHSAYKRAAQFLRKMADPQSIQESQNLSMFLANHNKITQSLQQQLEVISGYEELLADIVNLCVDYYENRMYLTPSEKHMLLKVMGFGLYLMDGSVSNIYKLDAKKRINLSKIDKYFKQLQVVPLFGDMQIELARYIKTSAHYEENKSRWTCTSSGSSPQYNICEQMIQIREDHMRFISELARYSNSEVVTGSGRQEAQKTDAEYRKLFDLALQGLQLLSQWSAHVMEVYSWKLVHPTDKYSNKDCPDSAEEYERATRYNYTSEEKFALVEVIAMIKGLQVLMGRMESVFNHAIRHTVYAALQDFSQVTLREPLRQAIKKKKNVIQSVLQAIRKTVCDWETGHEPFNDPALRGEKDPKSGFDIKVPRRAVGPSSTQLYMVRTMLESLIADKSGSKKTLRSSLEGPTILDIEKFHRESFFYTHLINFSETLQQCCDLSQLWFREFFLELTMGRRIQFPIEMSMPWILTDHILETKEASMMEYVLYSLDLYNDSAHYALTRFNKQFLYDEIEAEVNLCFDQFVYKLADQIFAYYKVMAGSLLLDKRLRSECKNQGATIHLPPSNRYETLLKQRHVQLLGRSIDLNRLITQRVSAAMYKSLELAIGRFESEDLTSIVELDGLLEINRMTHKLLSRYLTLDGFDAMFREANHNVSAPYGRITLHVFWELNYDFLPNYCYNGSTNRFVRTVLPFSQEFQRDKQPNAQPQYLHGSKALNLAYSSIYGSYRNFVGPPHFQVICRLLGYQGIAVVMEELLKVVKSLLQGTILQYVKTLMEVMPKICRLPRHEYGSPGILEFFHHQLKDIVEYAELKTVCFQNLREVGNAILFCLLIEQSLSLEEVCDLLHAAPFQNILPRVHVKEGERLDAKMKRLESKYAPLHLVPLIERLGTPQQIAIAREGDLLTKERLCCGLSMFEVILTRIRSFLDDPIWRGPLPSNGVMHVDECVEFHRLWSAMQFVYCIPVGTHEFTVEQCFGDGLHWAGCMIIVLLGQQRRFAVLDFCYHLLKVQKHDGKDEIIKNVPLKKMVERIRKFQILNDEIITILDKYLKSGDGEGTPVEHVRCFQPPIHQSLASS

[1] = target: ∆WRC230 with Sra1 W845A/Y849A (∆M#3) (human, UniProt Q7L576;Q9Y2A7;Q92558;Q9NYB9;Q8WUW1, W845A | Y849A); assay: pull-down
∆WRC230 with Sra1 W845A/Y849A (∆M#3), sequence (Q7L576 whole entry W845A/Y849A, one chain of several): as the sequence (Q7L576 whole entry) above, with W845A, Y849A counted along it

Sra1/Nap1 dimer, sequence (Q7L576 whole entry, one chain of several): as the sequence (Q7L576 whole entry) above

B1: Abi2(1-158) (domain or fragment)
chain: MAELQMLLEEEIPGGRRALFDSYTNLERVADYCENNYIQSADKQRALEETKAYTTQSLASVAYLINTLANNVLQMLDIQASQLRRMESSINHISQTVDIHKEKVARREIGILTTNKNTSRTHKIIAPANLERPVRYIRKPIDYTILDDIGHGVKWLLR
B1: binds (WAVE1(1-230)).

B2: WAVE1(1-230)/Abi2(1-158)/HSPC300 trimer (complex)
chain 1: MPLVKRNIDPRHLCHTALPRGIKNELECVTNISLANIIRQLSSLSKYAEDIFGELFNEAHSFSFRVNSLQERVDRLSVSVTQLDPKEEELSLQDITMRKAFRSSTIQDQQLFDRKTLPIPLQETYDVCEQPPPLNILTPYRDDGKEGLKFYTNPSYFFDLWKEKMLQDTEDKRKEKRKQKQKNLDRPHEPEKVPRAPHDRRREWQKLAQGPELAEDDANLLHKHIEVANG
chain 2: MAELQMLLEEEIPGGRRALFDSYTNLERVADYCENNYIQSADKQRALEETKAYTTQSLASVAYLINTLANNVLQMLDIQASQLRRMESSINHISQTVDIHKEKVARREIGILTTNKNTSRTHKIIAPANLERPVRYIRKPIDYTILDDIGHGVKWLLR
chain 3: MAGQEDPVQREIHQDWANREYIEIITSSIKKIADFLNSFDMSCRSRLATLNEKLTALERRIEYIEARVTKGETLT
B2: binds (Sra1/Nap1 dimer).

B3: HSPC300 (natural protein)
chain: MAGQEDPVQREIHQDWANREYIEIITSSIKKIADFLNSFDMSCRSRLATLNEKLTALERRIEYIEARVTKGETLT
B3: binds (WAVE1(1-230)).

B4: Nap1 (natural protein)
chain: MSRSVLQPSQQKLAEKLTILNDRGVGMLTRLYNIKKACGDPKAKPSYLIDKNLESAVKFIVRKFPAVETRNNNQQLAQLQKEKSEILKNLALYYFTFVDVMEFKDHVCELLNTIDVCQVFFDITVNFDLTKNYLDLIITYTTLMILLSRIEERKAIIGLYNYAHEMTHGASDREYPRLGQMIVDYENPLKKMMEEFVPHSKSLSDALISLQMVYPRRNLSADQWRNAQLLSLISAPSTMLNPAQSDTMPCEYLSLDAMEKWIIFGFILCHGILNTDATALNLWKLALQSSSCLSLFRDEVFHIHKAAEDLFVNIRGYNKRINDIRECKEAAVSHAGSMHRERRKFLRSALKELATVLSDQPGLLGPKALFVFMALSFARDEIIWLLRHADNMPKKSADDFIDKHIAELIFYMEELRAHVRKYGPVMQRYYVQYLSGFDAVVLNELVQNLSVCPEDESIIMSSFVNTMTSLSVKQVEDGEVFDFRGMRLDWFRLQAYTSVSKASLGLADHRELGKMMNTIIFHTKMVDSLVEMLVETSDLSIFCFYSRAFEKMFQQCLELPSQSRYSIAFPLLCTHFMSCTHELCPEERHHIGDRSLSLCNMFLDEMAKQARNLITDICTEQCTLSDQLLPKHCAKTISQAVNKKSKKQTGKKGEPEREKPGVESMRKNRLVVTNLDKLHTALSELCFSINYVPNMVVWEHTFTPREYLTSHLEIRFTKSIVGMTMYNQATQEIAKPSELLTSVRAYMTVLQSIENYVQIDITRVFNNVLLQQTQHLDSHGEPTITSLYTNWYLETLLRQVSNGHIAYFPAMKAFVNLPTENELTFNAEEYSDISEMRSLSELLGPYGMKFLSESLMWHISSQVAELKKLVVENVDVLTQMRTSFDKPDQMAALFKRLSSVDSVLKRMTIIGVILSFRSLAQEALRDVLSYHIPFLVSSIEDFKDHIPRETDMKVAMNVYELSSAAGLPCEIDPALVVALSSQKSENISPEEEYKIACLLMVFVAVSLPTLASNVMSQYSPAIEGHCNNIHCLAKAINQIAAALFTIHKGSIEDRLKEFLALASSSLLKIGQETDKTTTRNRESVYLLLDMIVQESPFLTMDLLESCFPYVLLRNAYHAVYKQSVTSSA
B4: binds (Sra1).

B5: GST-Arf1 (Arf1^∆N17) (natural protein)
chain: not shown
B5: binds [1].
